{"source": "the nanobody polyreactivity screen of Harvey et al. (2022)"}
{"assay": "yeast display, Sf9 membrane polyspecificity reagent, FACS + sequencing; frameworks hold sequencing errors", "summary_of_the_method": "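In a synthetic yeast display library (Saccharomyces cerevisiae BJ5465), nanobody expression was induced with galactose for 36–48 hours. FACS gates were set low and high (top ~1%) using anti-HA fluorescence for expression and streptavidin fluorescence for binding of the Sf9 membrane reagent. Each polyreactivity label is drawn from the gate of origin.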"}
{"sequence": "QVQLVESAGGLVQAGGSLRLRCAASGRIFTHNAMGWYRQAPGKERELVAAITSGGRTTYADSVKGRFTISRDNAKNTVYLQMNSLKPEDSAVYYCNADTGLGSLDFDKRDYWGQGTQVTVSS", "polyreactivity (PSR sort gate)": "low polyreactivity"}
{"sequence": "QVQLVESAGGLVQAGGSLRLSCAASGAIFGGYAMGWYRQAPGKERELVAAISSSGGSTYFADSVKGRFTISRDNEKNTVYLQMNSLKPEDTAVYYCAAKYQRRYYYWGQGTQVTVSS", "polyreactivity (PSR sort gate)": "high polyreactivity"}
{"sequence": "QVQLVESAGGLVQAGGSLRLSCAASGFIFFGNAMGWYRQAPGKERALVAVITWSGGSTYADSVKGRFTISRDNAKNPVYLQMNSLKPEDTAVYYSAADQQTWWQYSLINEYDYWGQGTQVTVTS", "polyreactivity (PSR sort gate)": "low polyreactivity"}
{"sequence": "QVQLVESAGGLVQAGGSLRLSCAASGFIFPRYAMGWYRPAPGKERELVAAISSSGGSTYYADSVKGRFTISRDNAKNTVYLQMNSLKPEDTAVYYCAARYQSDYWRYYYWGQGTQVTVSS", "polyreactivity (PSR sort gate)": "high polyreactivity"}
{"sequence": "QVQLVESAGGLVQAGGSLRLSCAASGGIFSRYSMGWYRQAPGKERELVAAITRSGGSTYYADSVKGRFTISRDNAKNTVYLQLNSLKPEDTAVYYCSARRRGGSKYGYWGQGTQVTVSS", "polyreactivity (PSR sort gate)": "high polyreactivity"}
{"sequence": "QVQLVESAGGLVQAGGSLRLSCAASGICAVYARGWYRQAPGKERELVAAITLSGGSTSYADSVKGRFTISRDNAKNTVYLQMNSLNPAATEVYYCAVLIRYPYYYWGQGTQVTVSS", "polyreactivity (PSR sort gate)": "low polyreactivity"}
{"sequence": "QVQLVESAGGLVQAGGSLRLSCAASGIIFSYYVMGWYRQAPGKERELVAAITTSGSRTYYADSVKGRFTISRDNAKITVYLQMNSLKPEVTSVYYCAAADAGLSVSSYRTYYYWGQGTQVTVSS", "polyreactivity (PSR sort gate)": "high polyreactivity"}
{"sequence": "QVQLVESAGGLVQAGGSLRLSCAASGLIFARNSMGWYRQAPGKERELVAAISKRGGSTFYADSVKGRFTISRDNAKNTVYLQMNSLKPVDTAVYYWNARSSETWHGDYWGQGTQVTVSS", "polyreactivity (PSR sort gate)": "high polyreactivity"}
{"sequence": "QVQLVESAGGLVQAGGSLRLSCAASGLTFYLYVMGWSRQATGKERELVAAISRRGGTTYYADSVKGRFTISRDNAKNTVYLQMNSLKPEDTAVYYCNKADAVGRDYDYWGQGTQVTVSS", "polyreactivity (PSR sort gate)": "high polyreactivity"}
{"sequence": "QVQLVESAGGLVQAGGSLRLSCAASGLTFYRYAMGWYRQAPGKERELVAAISSADRTYYADSVKGRFTISRDNAKNTVYLQMNSLKPEDTAVYYCNARGIGRSTKWSSRDYWGQGTQVTVSS", "polyreactivity (PSR sort gate)": "high polyreactivity"}
{"sequence": "QVQLVESAGGLVQAGGSLRLSCAASGRIFRANAMGWYRQAPGKERELVATIRNSGGITYYADSVKGRFTISRDHAKNTVYLQMNSLIPEDTAVYYCAKLGRYGYDYWGQGTQVTVSS", "polyreactivity (PSR sort gate)": "high polyreactivity"}
{"sequence": "QVQLVESAGGLVQAGGSLRLSCAASGRIFYRYAMAWYRQAPGKERELVAAITQSGGSTFYADSVKGRFTISRDNAKNTVYLQMNSLKPEDTAVYYCNAYIPSLRGDYWGQGTQVTVSS", "polyreactivity (PSR sort gate)": "high polyreactivity"}
{"sequence": "QVQLVESAGGLVQAGGSLRLSCAASGSIFLSNAMGWYRQAPGTERALVADIDWTGGDTYYADSVKGRFTISRDNAKNTVYLQMNSLKPEDTAFYYCAADYGYRNLLTEYGYWGQGTQVTVSS", "polyreactivity (PSR sort gate)": "low polyreactivity"}
{"sequence": "QVQLVESAGGLVQAGGSLRLSCAASGSIFPTNTMGWYRQAPGKERELVATIRKSSGRTYYADSVKGRFTISRDNAKNTVYLQMNSLKPEDTAVYYCNARRYSGALRYDYWGQGTQVTVSS", "polyreactivity (PSR sort gate)": "high polyreactivity"}
{"sequence": "QVQLVESAGGLVQAGGSLRLSCAASGSIFSPYAMGWYRQAPGKERELVAAITWNGGRTYYADSVKGRFTISRDNAKNTVYLHMNSLKPEDTAVYYCTAASQSRYYYWGQGTQVTVSS", "polyreactivity (PSR sort gate)": "high polyreactivity"}
{"sequence": "QVQLVESAGGLVQAGGSLRLSCAASGSTFAYNVMGWYRQAPGKERELVASISSSSGSTYYADSVKGRFTISRDNAKNTVYLQMNSLKPEDTAVYYCATYPAYTEYDYWGQGTQVTVSS", "polyreactivity (PSR sort gate)": "high polyreactivity"}
{"sequence": "QVQLVESAGGLVQAGGSLRLSCAASGSTFPWNAMGWDRQAPGKERELVAAISKSGGRTYYADSVKGRFTISRDNAKNTVYLQMNSLKPVDTAVYYCAKRYALSVYYRLYDYWGQGTQVTVSS", "polyreactivity (PSR sort gate)": "high polyreactivity"}
{"sequence": "QVQLVESAGGLVQAGGSLRLSCAASGSTFTLYAMGWYRQAPGKERELVAAISWSGDSTYYADSVKGRFTISRDNAKNTVYLQMNSLKPEDTAVYYCAAENVYGYDYWGQGTQVTESS", "polyreactivity (PSR sort gate)": "high polyreactivity"}
{"sequence": "QVQLVESAGGLVQAGGSLRLSCAASGSTFVGYAMGWYRQAPGKERELVAAISGSGTSTYYADSVKGRFTISRDNAKNTVYLQMNSLKPEDTAVYYCNADPIFVYSSYNYWGQGTQVTVSS", "polyreactivity (PSR sort gate)": "low polyreactivity"}
{"sequence": "QVQLVESAGGLVQAGGSLRLSCAASGSTFYAYVMGWYRPAPGKARELVAAISKGGGSTYYADSVKGRFTISRDNAKNTVYLQMNSLKPEDTAVYYCAAYASYSNYRKYNYWGQGTQVTVSS", "polyreactivity (PSR sort gate)": "high polyreactivity"}
{"sequence": "QVQLVESAGGLVQAGGSLRLSCAASGSTIYPNAMGWYRQAPGKERELVAVISSGGSTYYADSVKGRFTISRDNAKNTVYLQMNSLKPEDTAVYYCADERYYFPRSYRYGYWGQGTQVTVSS", "polyreactivity (PSR sort gate)": "low polyreactivity"}
{"sequence": "QVQLVESAGGLVQAGGSLRLSCAASGSTLYPYDMGWYRQAPGKERELVAAIDSGGSTNYADSVKGRFTISRDNAKNTVYLQMNSLKPEDTAVYYCAADASGENDYWGQGTQVTVSS", "polyreactivity (PSR sort gate)": "low polyreactivity"}
{"sequence": "QVQLVESAGGLVQAGGSLRLSCAASGTILWWNAMGRYRPAPGKERELVADITSDGTYADSVKGRFTISRDNAKNTVYLQMNSLKPEDTAVYYCAAVDAYGPGLNGYDYWGQGTQVTVSS", "polyreactivity (PSR sort gate)": "low polyreactivity"}
{"sequence": "QVQLVESAGGLVQAGGSLRLSCAASRRTFARYAIGRYRQAPGQERELVAALSRSGTCTYYADSVLGRFTISRDNAKNTVYLQKNSLKPEDCAVYYCAVDAYLGHYDYWGQGTQVTVSS", "polyreactivity (PSR sort gate)": "high polyreactivity"}
{"sequence": "QVQLVESAGGLVQAGGSLRLSCAASVSTLEYNAMGWYRQAPGNERELVAAITASGGSTYYADSVKGRFTISRDNAKKTVYLQMNSLKPDDTAVYYCATEANQRTLKDTVKDYDYWGQGTQVTVSS", "polyreactivity (PSR sort gate)": "low polyreactivity"}
{"sequence": "QVQLVESAGGLVQAGGSLRLSCDASGYTFNYNTMGCYRQARGKERELVSAINTSGSTDYADSVKGRFTISRDNAKNTDYLLMNRLKPEDTAVYYCAVRVAYKYNYWGQGTQETVSS", "polyreactivity (PSR sort gate)": "high polyreactivity"}
{"sequence": "QVQLVESAGGLVQAGGSLRLTCAASGNIFRRYAMGWYRQAPGKERELVAAISWRSGNTYYADSVKGRFTISRDNAKNTVYLQMNSLKPEDTAVYYCNKDYWWIPQLPHYNYWGQGTQVTVSS", "polyreactivity (PSR sort gate)": "low polyreactivity"}
{"sequence": "QVQLVESAGGLVQAGGSLRVICAASASTSVHNAMGWYRQAPGKERELVAAITSDGSTNYADSVKGRFTISRDNEKNTVYLLMYSLEPEDTAFYYCAALGWTYYVGYVSYSYGYWGQGTQVTVSS", "polyreactivity (PSR sort gate)": "low polyreactivity"}
{"sequence": "QVQLVESAGGLVQAGGSLSLSCAASGFNFKGYAMGSYRQAPGKERELVAAISSSGTSTYYADSVKGRFTISRDNEKNTVYLQMNSLKPEDTAVYYCARVSKRTWSGYYYWGQGTQVTVSS", "polyreactivity (PSR sort gate)": "high polyreactivity"}
{"sequence": "QVQLVESAGGLVQAGGSLSLSCAASGITFIPNPMGWYRQAPGKERELVAAISISGGRTYYADSVKGRFTISRDNAKNTVYLQMNSLKPEDTAVYYCAADRADFFVIRTIDPYDYWGQGTQVTVSS", "polyreactivity (PSR sort gate)": "low polyreactivity"}
{"sequence": "QVQLVESAGGLVQAGGSLSLSCAASGLTFHYYHMGWYRQATGKETELVAAITSSGGRTYYADSVKGRFTISRDNEKNTVFLQMNSLKPEDTAVYFCAADIYPDWIYLLYGYWGQGTQVTVSS", "polyreactivity (PSR sort gate)": "low polyreactivity"}
{"sequence": "QVQLVESAGGLVQAGGSLSLSCAASGRTFSYYAMGWYRHARGKERELVAAISRRGGSTYYADSVKGRLTISRDNAKNTVYLQMISLKPEDTAVDYCNARGRSTVGGGFYYWGLGTQVTVSS", "polyreactivity (PSR sort gate)": "high polyreactivity"}
{"sequence": "QVQLVESAGGLVQAGGSLSLSCAASGSTFYKYTMGWDRQAPGKERELVAAISGSGTTTYYADSVKGRFTISRDNAKNTVYLQMNSLKPEDTAVYYCAAHSRSSSGYHWGQGTQVTVSS", "polyreactivity (PSR sort gate)": "high polyreactivity"}
{"sequence": "QVQLVESAGGLVQAVGSLRLSCDASGSTFSGNDMGWYRQAPGKERELVAAITSSGGSTYYADSVKGRFTISRDNAKNTVYLQMNSLKPEDTAVYYCAAKSRRTRRSYYWGQGTQVTVSS", "polyreactivity (PSR sort gate)": "high polyreactivity"}
{"sequence": "QVQLVESAGGLVQEGGSLRVSCAASGRTFGRYAMGRYRQAPGKEREMVAAITVGGGSTYYADSVKGRFTISRDTAKNTVYLQMNSLKPEDTAVYYCNALHTYTYRYDYYYWGQGTQVTVSS", "polyreactivity (PSR sort gate)": "high polyreactivity"}
{"sequence": "QVQLVESAGRLVQAGGSLRLSCAASGFTFRKNAMGWYRQAPGKERELVAAITFSGGSTYYADSVKGRFTISRDNAKNTVYLQMNSLKPEDTAVYFCGTRYYYHYPRKHIYNYWGQGTQVTVSS", "polyreactivity (PSR sort gate)": "high polyreactivity"}
{"sequence": "QVQLVESAGRLVQAGGSLRLSCSASGSIFDWYAMGWYRQEPGKERELVAAISWSGGSTYYADSVKGRFTISRDNAKNTVYLQMNSLKPEDSAVYYCYAVFLYFNDDKFDNWGQGTQVTVSS", "polyreactivity (PSR sort gate)": "low polyreactivity"}
{"sequence": "QVQLVESAGVLVQAGGRLRLICAACGSIFDYYSLGWYRQAPGKEREMVDTISGGGGTTYYADSVKGRFTISRDNAKNSVYVHMNSLKPEDTAVYYCAADSLGYKYWGQGTQVTVSS", "polyreactivity (PSR sort gate)": "low polyreactivity"}
{"sequence": "QVQLVESAVGLVQAGGSLRLSCAASGGIIAYNAMGWYRQAPGKERELVAAISSSGGRTYYADSVKGRFTISRDNAKNTVYLQMNSLKPEDTAVYYCAADITFRYYYWGQGTQVTVSS", "polyreactivity (PSR sort gate)": "high polyreactivity"}
{"sequence": "QVQLVESCGCLVQAGGSLRLSCAAYGITFGRNTMVWDRQAPGKERELVAAIDSGGNTYAVSVKGRFTISRDNAKNTVYLQMISLKPEDTAVYYCAVDGGEFSSYGYWGQGTQVTVSS", "polyreactivity (PSR sort gate)": "low polyreactivity"}
{"sequence": "QVQLVESCGGIVQAGVSLRLSCAASGSIFGIYAMGWYRQAPGKERELVAAIDSSGTSTYYADSVKGRFTISRDNEKNTVYLQMNSLKPEDTAVNSSAAYHRISKNNYWGQGTEVTVSS", "polyreactivity (PSR sort gate)": "low polyreactivity"}
{"sequence": "QVQLVESCGGLDQAGGSLRLSCAASGSMFGYAMGWYRQAPGKERELVASTTYADSVKGRFTISRDNAKNTVYLQMNSLKPEDTAVYDCAADDWYTVEMEYWGQGTLVTVSS", "polyreactivity (PSR sort gate)": "low polyreactivity"}
{"sequence": "QVQLVESCGGLVHAGCSLRLSCAASGSTFTFYAMGWYRQAPGKERVLVATISWSTGTTYYADSVKGRFTISRDSAKNTVYLEMNSMKPEDTAVYYCADAWSYRFDYWGQGTQVTVSS", "polyreactivity (PSR sort gate)": "low polyreactivity"}
